Test results reported in the nanobody polyreactivity screen of Harvey et al. (2022).

Test: yeast display, Sf9 membrane polyspecificity reagent, FACS + sequencing; frameworks hold sequencing errors
How it was run: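 A nanobody's polyreactivity label depends on the gate it was sorted from. Yeast display cells were stained with 10% biotinylated, detergent-solubilized Sf9 membrane reagent for 1 hour at 4 °C, enriched on streptavidin microbeads and sorted by FACS. The low and high (top ~1%) gates were set on anti-HA fluorescence for expression and streptavidin fluorescence for reagent binding.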

QVQLVESGGGLVQAGGSLRLSCAASGIIFGKYAMGWYRQAPGKERELVASITVDGGTTYYADSVKGRFTISRDNAKNTVYLQMNSLKPEDTAVYYCATGVFAEQWFDYWPYDYWGQGTQVTVSS
polyreactivity (PSR sort gate): high polyreactivity

QVQLVESGGGLVQAGGSLRLSCAASGIIFGKYVMGWYRQAPGKEREFVAAISVRSGSTYYADSVKGRFTISRDNAKNTVYLQMNSLKPEDTALYYCAAREPVPRHLDYYYWGQGTQVSVSS
polyreactivity (PSR sort gate): high polyreactivity

QVQLVESGGGLVQAGGSLRLSCAASGIIFGNNAMGWYRQAPGKERELVAAIRWSTGTTYYADSVKGRFTISRDNAKNTVYLQMNSLKPEDTAVYYCAARLRREYGYWGQGTQVTVSS
polyreactivity (PSR sort gate): high polyreactivity

QVQLVESGGGLVQAGGSLRLSCAASGIIFGPYAMGWYRQAPGKERELVAAISSSGGNTYYADSVKGRFTISRDNAKNTVYLQMNSLKPEYTAVYYCAAEGYWGQPFDYDGALEYWGQGTQVTVSS
polyreactivity (PSR sort gate): high polyreactivity

QVQLVESGGGLVQAGGSLRLSCAASGIIFGPYAMGWYRQAPGKEWELVAAITWSGGGTYYADSVKGRFTISRDNAKNTVYLQMNSLKPEDTAVYYCAKYFPAGYYYWGQGTQVTVSS
polyreactivity (PSR sort gate): low polyreactivity

QVQLVESGGGLVQAGGSLRLSCAASGIIFGRYAMGWYRQAPGKERELVAAISTSGGSTYYADSVKGRFTISRDNAKNTVYLQMNSLKPEDTAVYYCNAVPVVRAGHGYDSWGQGTQVTVSS
polyreactivity (PSR sort gate): high polyreactivity

QVQLVESGGGLVQAGGSLRLSCAASGIIFGRYTMGWYRQAPGKERELVAAITSSGITYYADSVKGRFTISRDNAKNTVYLQMNSLKPEDSAVYYCNADYSIPGYYWPYDYWGQGTQVTVSS
polyreactivity (PSR sort gate): low polyreactivity

QVQLVESGGGLVQAGGSLRLSCAASGIIFGRYTMGWYRQAPGKERELVAAITSSGITYYADSVKGRFTISRDNAKNTVYLQMNSLKPEDTAVYYCAAEYNWYDYWGQGTQVTVSS
polyreactivity (PSR sort gate): low polyreactivity

QVQLVESGGGLVQAGGSLRLSCAASGIIFGSYAMGWYRQAPGKEREFVADISKGDSTYYADSVKGRFTISRDNAKNTVYLQMNSLKPEDTAVYYCAVDSWRRALWYYGRYGYWGQGTQVTVSS
polyreactivity (PSR sort gate): low polyreactivity

QVQLVESGGGLVQAGGSLRLSCAASGIIFGTNAMGWYRQAPGKERELVAGITSSGDSTYYADSVKGRFTISRDNAKNTVYLQMNSLKPEDTAVYYCAAYSGVGFLWFDYWGQGTQVTVSS
polyreactivity (PSR sort gate): low polyreactivity

QVQLVESGGGLVQAGGSLRLSCAASGIIFGTYAMGWYRQAPGKERDLVAAISSSGGSTYYADSVKGRFTISRDNAKNTVYLQMNSLKPEDTAVYYCAADGPSNHDYHWGQGTQVTVSS
polyreactivity (PSR sort gate): high polyreactivity

QVQLVESGGGLVQAGGSLRLSCAASGIIFGTYAMGWYRQAPGKERELVAAINWSGGSTYYADSVKGRFTISRDNAKNTVYLQMNSLKPEDTAVYYCAADGNEYDYWGQGTQVSVSS
polyreactivity (PSR sort gate): low polyreactivity

QVQLVESGGGLVQAGGSLRLSCAASGIIFGTYAMGWYRQAPGKERELVASISSRGGSTYYADSVKGRFTISRDNAKNTVYLQMNSLKPEDTAVYYCAKRPSYAYSRYRKGHDYWGQGTQVSVSS
polyreactivity (PSR sort gate): high polyreactivity

QVQLVESGGGLVQAGGSLRLSCAASGIIFGVYAMGWYRQAPGKERELVAAIDGNGSSTYYADSVKGRFTISRDNAKNTVYLQMNSLKPEDTAVYYCAARPDYYLWHGYYTRRHYYWGQGTQVTVSA
polyreactivity (PSR sort gate): low polyreactivity

QVQLVESGGGLVQAGGSLRLSCAASGIIFGWYAMGWYRPAPGKERELVAAISSGGRTNYADSVKGRFTISRDNAKNTVYLQMNSLKPEDTAVYYCAARLWENTGYYYWGQGTQVTVSS
polyreactivity (PSR sort gate): high polyreactivity

QVQLVESGGGLVQAGGSLRLSCAASGIIFGYYAMGWYRQAPGKERELVAAISKRGGSTNYADSVKGRFTISRDNAKNTVYLQMNSLKPEDTAVYYCAARYPQGGTGKATYVRSRSGYWGQGTQVTVSS
polyreactivity (PSR sort gate): high polyreactivity

QVQLVESGGGLVQAGGSLRLSCAASGIIFGYYAMGWYRQAPGKERELVAAISRGGNTNYADSVKGRFTISRDNAKNTVYLQMNSLKPEDTAVYYCAADFWSRIKYFYAVDVDYWGQGTQVTVSS
polyreactivity (PSR sort gate): low polyreactivity

QVQLVESGGGLVQAGGSLRLSCAASGIIFGYYAMGWYRQAPGKERELVAAISRRGGSTYYADSVKGRFTISRDNAKNTVYLQMNSLKPEDTAVYYCNKRRAAGGFPYDYWGQGTQVTVSS
polyreactivity (PSR sort gate): high polyreactivity

QVQLVESGGGLVQAGGSLRLSCAASGIIFHWYAMGWYRQAPGKERELVAAITQSGGSTSYADSVKGRFTISRDNAKNTVYLQMNSLKPEDTAVYYCAKDYAYTLWENYYAFNYWGQGTQVTVSS
polyreactivity (PSR sort gate): low polyreactivity

QVQLVESGGGLVQAGGSLRLSCAASGIIFIAYAMGWYRQAPGKERELVADISIGGSTNYADSVKGRFTISRDNAKNTVYLQMNSLKPEDTAVYYCNAGGGFYGSTVEHDYWGQGTQVTVSS
polyreactivity (PSR sort gate): low polyreactivity

QVQLVESGGGLVQAGGSLRLSCAASGIIFIFYDMGWYRQAPGTERELVAAITNGVDSTYYADSVKGRFTISRDNAKNTVYLQMNSLKPEDTAVYYCNADTVVEWYSPSREYDYWGQGTQVTVSS
polyreactivity (PSR sort gate): low polyreactivity

QVQLVESGGGLVQAGGSLRLSCAASGIIFITYAMGWYRQAPGKERELVAAITSDGNTNYADSVKGRFTISRDNAKNTVYLQMNSLKPEDTAVYYCNAETQYGVLSWHSTRHDYWGQGTQVTVSS
polyreactivity (PSR sort gate): low polyreactivity

QVQLVESGGGLVQAGGSLRLSCAASGIIFITYAMGWYRQAPGKERELVAVISKGGGRTYYADSVKGRFTISRDNAKNTVYLQMNSLKPEDTAVYYCAARSSSNRYVHMDYWGQGTQVTVSS
polyreactivity (PSR sort gate): high polyreactivity

QVQLVESGGGLVQAGGSLRLSCAASGIIFKDYAMGWYRQAPGKERELVAAISWNGDRTYYADSVKGRFTISRDNAKNTVYLQMNRLKPEDTAVYYCAARFGSCFNYWGQGTQVTVSS
polyreactivity (PSR sort gate): high polyreactivity

QVQLVESGGGLVQAGGSLRLSCAASGIIFKGYPMGWYRPAPGKERELVAGISSGGTTYYADSVKGRFTISRDNAKITVYLQMNSLKPEDTAVYYCGAGPRRSYRFDYWGQGTQVTVSS
polyreactivity (PSR sort gate): high polyreactivity

QVQLVESGGGLVQAGGSLRLSCAASGIIFKNYAMGWYRQAPGKERELVAAISKRGASTYYADSVKGRFTISRDNAKNTVYLQMNSLKPEDTAVYYCAAYRQGSAYDYWGQGTQVTVSS
polyreactivity (PSR sort gate): high polyreactivity

QVQLVESGGGLVQAGGSLRLSCAASGIIFKNYAMGWYRQAPGKERELVAAISWRGGRTYYADSVKGRFTISRDNAKNTVYLQMNSLKPEDTAVYYCAKELYVSYRGGPWVDYWGQGTQVTVSS
polyreactivity (PSR sort gate): high polyreactivity

QVQLVESGGGLVQAGGSLRLSCAASGIIFKSYAVGWYRQAPGKERELVAAISSGGSTNYADSVKGRFTISRDNAKNTVYLQMNSLKPEDTAVYYCAKRYTATEWHGERDYWGQGTQVTVSS
polyreactivity (PSR sort gate): high polyreactivity

QVQLVESGGGLVQAGGSLRLSCAASGIIFKTYAKGWYRPAPAKERELVAAISRRGGSTYYADSVNGRFTISRDNAKNTVYLQMNSLKPEDTAVYYCAAEYGYVIAYTTRAFYYWGHGTQVTVSS
polyreactivity (PSR sort gate): high polyreactivity

QVQLVESGGGLVQAGGSLRLSCAASGIIFKYYAMGWYRQAPGKERELVAAITGNGGSTYYADSVKGRFTISRDNAKNTVYLQMNSLKPEDTAVYYCATRWFAVHMYWGQGTQVTVSS
polyreactivity (PSR sort gate): high polyreactivity

QVQLVESGGGLVQAGGSLRLSCAASGIIFLDNAMGWYRQAPGKERELVADITSSGGSTYYADSVKGRFTISRDNAKNTVSLQMNSLKPEDTAVYYCAATRPSYNDAESDYWGQGTQVTVSS
polyreactivity (PSR sort gate): low polyreactivity
